# Measurements as given in US20220259325A1.
# Columns and labels:
# [1] = target: human MASP-2 (protein in human serum or plasma) (human)
# [2] = target: human MASP-1 (protein in human serum) (human)
# Chain of human MASP-1 (protein in human serum) (human) (chain, as listed by the source): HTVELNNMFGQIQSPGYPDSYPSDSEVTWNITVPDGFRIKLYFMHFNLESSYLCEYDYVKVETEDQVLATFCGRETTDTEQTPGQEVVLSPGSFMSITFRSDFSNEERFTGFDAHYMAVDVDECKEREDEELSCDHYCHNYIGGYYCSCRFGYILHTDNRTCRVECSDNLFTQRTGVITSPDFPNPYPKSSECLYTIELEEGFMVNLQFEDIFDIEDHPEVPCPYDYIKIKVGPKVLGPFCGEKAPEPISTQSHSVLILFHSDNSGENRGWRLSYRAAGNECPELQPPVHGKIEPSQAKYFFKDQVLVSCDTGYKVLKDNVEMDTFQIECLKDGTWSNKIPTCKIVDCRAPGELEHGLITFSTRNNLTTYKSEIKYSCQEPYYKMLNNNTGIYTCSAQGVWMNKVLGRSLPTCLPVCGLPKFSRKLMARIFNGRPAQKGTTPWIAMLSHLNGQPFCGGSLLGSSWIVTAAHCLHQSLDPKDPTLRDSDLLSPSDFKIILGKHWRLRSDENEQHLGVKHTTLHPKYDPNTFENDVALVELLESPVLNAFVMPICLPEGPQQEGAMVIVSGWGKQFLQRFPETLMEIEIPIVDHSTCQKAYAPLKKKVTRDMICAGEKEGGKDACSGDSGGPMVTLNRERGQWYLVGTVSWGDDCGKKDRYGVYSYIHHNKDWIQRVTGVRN
C3b deposition from 1% normal human serum on mannan-coated wells (IC50) [1] [µM],C3b deposition from 1% normal human serum on mannan-coated wells (IC50) [2] [µM],Substance
0.3,,"SGMI-2Fc (mature polypeptide fusion comprising SGMI-2, linker #1 and human IgG1-Fc) (Fc fusion)"
,0.027,"SGMI-1Fc (mature polypeptide fusion comprising SGMI-1, linker #1 and human IgG1-Fc) (Fc fusion)"
